Laboratory results: patent CN112851814A (XIAN YUFAN BIOTECHNOLOGIES CO LTD, dated 2021)

Tests used:
BSA蛋白 = molecular target: T1, BSA蛋白 (UniProt P02769 25-607); test: ELISA, BSA coated at 2 μg/mL, dilution series of B48, detected by anti-HA and HRP goat anti-mouse IgG
T1 construct: Control protein in the ELISA; also called 对照蛋白

BCMA蛋白 = molecular target: T2, BCMA蛋白 (human, UniProt Q02223 1-54); test: ELISA, BCMA coated at 2 μg/mL, dilution series of B48, detected by anti-HA and HRP goat anti-mouse IgG
T2 construct: extracellular domain; also called 抗原BCMA; B cell maturation antigen
T2 sequence (looked up): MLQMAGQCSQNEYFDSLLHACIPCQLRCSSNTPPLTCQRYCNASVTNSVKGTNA

T1 sequence (P02769 25-607 limits assumed): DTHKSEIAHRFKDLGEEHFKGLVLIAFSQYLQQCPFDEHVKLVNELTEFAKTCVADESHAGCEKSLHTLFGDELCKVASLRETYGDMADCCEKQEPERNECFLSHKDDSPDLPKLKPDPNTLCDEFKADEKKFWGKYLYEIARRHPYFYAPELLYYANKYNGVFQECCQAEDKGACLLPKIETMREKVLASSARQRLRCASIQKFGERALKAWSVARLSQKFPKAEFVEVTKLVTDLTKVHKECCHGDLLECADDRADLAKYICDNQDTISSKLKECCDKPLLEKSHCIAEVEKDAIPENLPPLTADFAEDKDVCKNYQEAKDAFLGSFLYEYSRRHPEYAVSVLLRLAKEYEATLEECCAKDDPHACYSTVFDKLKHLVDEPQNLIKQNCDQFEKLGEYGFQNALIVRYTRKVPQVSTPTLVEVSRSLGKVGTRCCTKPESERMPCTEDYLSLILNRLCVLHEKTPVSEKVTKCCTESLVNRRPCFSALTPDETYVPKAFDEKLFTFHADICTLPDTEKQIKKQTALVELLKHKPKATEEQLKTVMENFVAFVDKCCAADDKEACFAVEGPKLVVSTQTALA

B1: 抗BCMA单链抗体B48 (scFv)
scFv: QVQLVESGGDLVQPGGSLRLSCAASGFTFDDYAMHWVRQAPGKGLEWVSGISWNSGSIGYADSVKGRFTISRDNAKNSLYLQMNSLRAEDTALYYCAKIAGGAFDIWGQGTMVTVSSGGGGSGGGGSGGGGSDIRMTQSPSTLSASVGDRVTITCQASQNIGHFLAWYQHKPGKAPKLLIYAASTLQSGVPSRFSGSGSGTDFTLTISSLQPEDFGTYYCHHYVTVPLTFGQGTRVEIK
notes: Expressed in E. coli BL21 from pET-26b with an N-terminal pelB signal peptide (secreted to the periplasm); Purified protein carries C-terminal HA and 6xHis tags; also called B48单链抗体; not shown: C-terminal 6xHis tag from the vector pET-26b; vector residues between the insert
With B1 the binding result (BSA蛋白) was “no binding” and the EC50 (BCMA蛋白) was 34 nM.
